From patent publication US20260234242A1 (HAINAN SIMCERE ZAIMING PHARMACEUTICAL, published 2026)

T1: human CDH6 with EC2 removed, on HEK293T cells (HEK293T-hCDH6-EC2 deletion) (human, UniProt P55285 54-790)
T1 construct: Signal peptide not removed here
T1 sequence: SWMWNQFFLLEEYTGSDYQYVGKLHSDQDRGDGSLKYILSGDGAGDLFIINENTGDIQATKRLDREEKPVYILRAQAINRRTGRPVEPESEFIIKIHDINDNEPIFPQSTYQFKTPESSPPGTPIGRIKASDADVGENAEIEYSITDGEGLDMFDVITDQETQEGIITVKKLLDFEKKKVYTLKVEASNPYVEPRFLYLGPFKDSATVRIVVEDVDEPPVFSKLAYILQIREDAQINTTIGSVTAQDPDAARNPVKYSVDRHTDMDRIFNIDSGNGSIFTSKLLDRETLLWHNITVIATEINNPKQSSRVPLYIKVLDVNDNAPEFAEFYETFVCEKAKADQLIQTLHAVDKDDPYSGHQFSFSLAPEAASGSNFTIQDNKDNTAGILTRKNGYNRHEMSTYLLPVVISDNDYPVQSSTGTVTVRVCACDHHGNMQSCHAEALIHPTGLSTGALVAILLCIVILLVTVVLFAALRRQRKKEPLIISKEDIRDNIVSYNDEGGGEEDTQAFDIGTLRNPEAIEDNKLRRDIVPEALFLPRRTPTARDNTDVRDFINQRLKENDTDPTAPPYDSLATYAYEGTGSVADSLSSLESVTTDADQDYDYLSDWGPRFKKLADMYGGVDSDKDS

T2: his-tagged human CDH6 extracellular region protein (hCDH6 ECD-his) (human, UniProt P55285 19-615)
T2 construct: also called Human CDH6-his; hCDH6-his; not shown: his tag
T2 sequence: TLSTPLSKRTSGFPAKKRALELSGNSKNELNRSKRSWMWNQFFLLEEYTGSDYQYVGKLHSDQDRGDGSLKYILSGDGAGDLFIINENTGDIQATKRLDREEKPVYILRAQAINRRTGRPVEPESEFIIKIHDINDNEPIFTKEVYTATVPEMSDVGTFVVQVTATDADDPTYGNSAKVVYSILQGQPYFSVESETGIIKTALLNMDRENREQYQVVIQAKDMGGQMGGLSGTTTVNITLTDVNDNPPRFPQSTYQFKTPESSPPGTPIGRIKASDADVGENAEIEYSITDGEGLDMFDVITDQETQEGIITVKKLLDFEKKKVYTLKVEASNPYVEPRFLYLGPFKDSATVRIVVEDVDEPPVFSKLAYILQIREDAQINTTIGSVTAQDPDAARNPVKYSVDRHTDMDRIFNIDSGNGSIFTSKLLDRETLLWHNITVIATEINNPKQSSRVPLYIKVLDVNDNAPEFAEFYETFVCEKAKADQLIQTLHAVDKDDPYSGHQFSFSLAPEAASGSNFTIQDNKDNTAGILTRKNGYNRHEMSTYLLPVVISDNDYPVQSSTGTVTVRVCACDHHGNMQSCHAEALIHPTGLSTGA

T3: human CDH6 with EC5 removed, on HEK293T cells (HEK293T-hCDH6-EC5 deletion) (human, UniProt P55285 54-790)
T3 construct: Signal peptide not removed here
T3 sequence: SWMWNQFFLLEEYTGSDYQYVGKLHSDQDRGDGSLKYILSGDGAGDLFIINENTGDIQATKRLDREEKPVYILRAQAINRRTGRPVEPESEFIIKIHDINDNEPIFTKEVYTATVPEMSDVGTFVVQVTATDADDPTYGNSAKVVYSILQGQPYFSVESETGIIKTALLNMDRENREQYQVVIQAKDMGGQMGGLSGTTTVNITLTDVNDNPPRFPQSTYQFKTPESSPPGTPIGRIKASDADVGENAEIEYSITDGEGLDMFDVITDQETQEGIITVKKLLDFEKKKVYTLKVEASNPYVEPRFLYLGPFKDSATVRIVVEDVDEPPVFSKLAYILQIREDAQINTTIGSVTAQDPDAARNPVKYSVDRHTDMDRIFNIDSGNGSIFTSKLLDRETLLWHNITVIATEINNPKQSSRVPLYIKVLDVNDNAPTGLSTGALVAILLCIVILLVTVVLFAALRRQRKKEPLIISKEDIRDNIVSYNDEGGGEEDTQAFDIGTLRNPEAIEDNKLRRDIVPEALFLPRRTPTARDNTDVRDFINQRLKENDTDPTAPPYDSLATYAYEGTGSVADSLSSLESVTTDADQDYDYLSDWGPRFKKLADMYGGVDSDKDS


Columns and labels:
[1] = target: T1, human CDH6 with EC2 removed, on HEK293T …; experiment: FACS, HEK293T-hCDH6-EC2 deletion cells
[2] = target: T2, his-tagged human CDH6 extracellular …; experiment: ELISA, coated antigen; ELISA, coated hCDH6 ECD-his; plateau signal
Experimental: Human CDH6 protein (hCDH6 ECD-his, conventionally synthesized), monkey CDH6 protein (cynoCDH6 ECD-his, conventionally synthesized; the cynoCDH6 ECD sequence was derived from Uniprot #A0A2K5TW62 (19-615)), and murine CDH6 protein (mCDH6 ECD-his, conventionally synthesized; the mCDH6 ECD sequence was derived from Uniprot #P97326 (19-615)) were diluted with PBS to a final concentration of 1 μg/mL, and added to a 96-well ELISA plate at 100 μL/well. The plate was incubated at 4° C. overnight. The next day, the plate was washed 3 times with a plate washing solution (PBS+0.01% (v/v) Tween 20), and a blocking buffer (PBS+0.01% (v/v) Tween 20+2% (w/w) BSA) was added for blocking at room temperature for 2 h. The blocking buffer was discarded, and the plate was washed 3 times. The chimeric antibodies were diluted with 1% BSA+PBS (purchased from Cytiva, Cat. No. SH30264.01) and added to the 96-well plate at 50 μL/well. After incubation at 37° C. for 2 h, the plate was washed 3 times with a plate washing solution. […] The plate was incubated at 37° C. for 1 h and then washed 5 times with a plate washing solution. A TMB substrate (purchased from Seracare, Cat. No. 5120-0077) was added at 50 μL/well and incubated at room temperature for 10 min, then a stop solution (1.0 N HCl) was added at 50 μL/well. OD450 nm values were read using a microplate reader (Biotek). Analysis was performed by the GraphPad Prism software, data were fitted, and EC50 values were calculated. The chimeric antibodies tested all had strong binding to the human CDH6 protein, the monkey CDH6 protein, and the murine CDH6 protein.

[3] = target: T3, human CDH6 with EC5 removed, on HEK293T …; experiment: FACS, HEK293T-hCDH6-EC5 deletion cells
Text: To confirm the binding epitope of the CDH6 antibody, the sequences after removal of these 5 regions were constructed into pcDNA3.1 vectors (purchased from Youbio, Cat. No. VT1001), and transfected into HEK293T cells (purchased from Cell Bank of Chinese Academy of Sciences, Cat. No. SCSP-502) to obtain 5 CDH6 truncated cell lines: HEK293T-hCDH6-EC1 deletion, HEK293T-hCDH6-EC2 deletion, HEK293T-hCDH6-EC3 deletion, HEK293T-hCDH6-EC4 deletion, and HEK293T-hCDH6-EC5 deletion.
The binding activity of the CDH6 chimeric antibodies to these 5 cell lines was assayed by FACS.

Binder | Max MFI [1] | Max OD450 [2] | Max MFI [3] | binding result [3]
DS-H01L02 (antibody, human IgG1, kappa, V domains shown, Positive control, variable regions from WO2018212136A1; also called positive control anti-human CDH6 antibody) VH: EVQLVQSGAEVKKPGASVKVSCKASGYTFTRNFMHWVRQAPGQGLEWMGWIYPGDGETEYAQKFQGRVTITADTSTSTAYMELSSLRSEDTAVYYCARGVYGGFAGGYFDFWGQGTLVTVSS VL: DIQMTQSPSSLSASVGDRVTITCKASQNIYKNLAWYQQKPGKAPKLLIYDANTLQTGVPSRFSGSGSGSDFTLTISSLQPEDFATYFCQQYYSGWAFGQGTKVEIKR | 8390 MFI | 1.89 OD450 | 1530 MFI | 
CHI-CDH6-14 (antibody, human IgG1, kappa, V domains shown, also called CHI-hCDH6-14; CH1-CDH6-14) VH: QIQLQQSGPELVKPGTSVKISCKASGYTFTDNYINWVRQRPGQGLEWIGWIYPGTGNSYYNEKFKGKATLTVDTSSSTAYMQFSSLTSEDSAVYLCASSYGDSFDYWGQGTTLTVSS VL: DIQMTQTTSSLSASLGNRVTISCRASQDIRNYLNWYQQKPDGTFKLLISYTSRLHSGVPSRFSGSGSGTDYSLTVSNLEPEDIATYYCQQYSQLPWTFGGGSRLEIKR | 814 MFI |  | 4040 MFI | 
NOV0712 (antibody, human IgG1, kappa, V domains shown, Positive control, variable regions from WO2018212136A1; also called positive control anti-human CDH6 antibody) VH: QVQLLESGGGLVQPGGSLRLSCAASGFTFSSHGMHWVRQAPGKGLEWVSVISGSGSNTGYADSVKGRFTISRDNSKNTLYLQMNSLRAEDTAVYYCARQWGSYAFDSWGQGTLVTVSS VL: DIQMTQSPSSLSASVGDRVTITCRASQSISSYLNWYQQKPGKAPKLLIYAVSTLQSGVPSRFSGSGSGTDFTLTISSLQPEDFATYYCQQSGTFPPTTFGQGTKVEIKR | 39100 MFI |  |  | no binding (tested: MFI ~1.5 times that of hIgG1 (81))
CHI-CDH6-12 (antibody, human IgG1, kappa, V domains shown, also called CH1-CDH6-12; chimeric antibody of murine CDH6-12) VH: EVNLVESGGGLVQPGDSLTLSCSASGFTFTDYYMSWVRQFPGKALEWLALIRNKANSYTTEYSASVKGRFTISRDNSQSILYLQMNALRAEDSATYYCARDSYYSHDGFAYWGQGTLVTVSA VL: DIVLTQSPASLAVSLGQRATISCRASKSVSTSSYTYMHWYQQKPGQPPKLLIKFASYLESGVPARFSGSGSGTDFTLNIHPVEEEDAATYYCQHSREFPFTFGTGTKLEIKR | 11000 MFI | 1.82 OD450 | 4490 MFI | 
CHI-CDH6-5 (antibody, human IgG1, kappa, V domains shown, also called CH1-CDH6-5; chimeric antibody of murine CDH6-5) VH: QVQLQQSGAELVRPGTSVKMSCKAAEYTFTNYWIGWVKQRPGHGLEWIGDLYPGGDHANYNEKFEGKATLTADTSSSTAYMQLSSLTSEDSAIYYCARGMLTTGFDSWGQGTTLTVSS VL: DIVMSQSPSSLAVSAGEKVTMSCKSSQSLFNSRTRKNYLAWYQQKPGQSPKLLIYWASTRESGVPDRFTGSGSGTDFTLTISSVQAEDLAVYYCKQSYYLRTFGGGTKLEIKR | 343 MFI | 1.79 OD450 | 4240 MFI | 
CHI-CDH6-3 (antibody, human IgG1, kappa, V domains shown, also called CH1-CDH6-3; chimeric antibody of murine CDH6-3) VH: QVQLQQPGAELVKPGASVKLSCKASGYTFTSYWIHWVKQRPGQGLEWIGEINPSNGVTNCNENFKSKATLTVDKSSSTAYMQLSSLTSEDSAVYYCTIPNLLWWYFDVWGAGTTVTVSS VL: DIQMTQSPASLSVSVGETVTITCRASENIYSNLAWYQQKQGKSPQLLVYEATNLADGVPSRFSGSGSGTQYSLKINSLQSEDFGSYYCQHFWGTLWTFGGGTKLEIKR | 7550 MFI | 2.56 OD450 | 5610 MFI | 
CHI-CDH6-4 (antibody, human IgG1, kappa, V domains shown, also called CH1-CDH6-4; chimeric antibody of murine CDH6-4) VH: QVQLQQSGPELVKPGASVKISCKASGYAFSNFWMNWVKQRPGKGLEWIGWIYPGDGDTNYNGKFKDKATLTADKSSSTAYIQLSSLTSEDSAVYFCARLYDAWGFFDYWGQGTTLTVSS VL: QIVLTQSPAIMSASPGQKVTITCSASSSVNYMHWYQQKLGSSPKLWIYDKSKLAPGVPARFSGSGSGTSYSLTISSMEAEDAASYFCHQWSSYPPMTFGGGTKLEIKR | 75 MFI | 2.14 OD450 | 6540 MFI | 
CHI-CDH6-1 (antibody, human IgG1, kappa, V domains shown, also called CHI-hCDH6-1; CH1-CDH6-1) VH: QVQLQQPGAELVRPGSSVKLSCKASGYTFTNYWMHWVKQRPIEGLEWIGDIDPSHSETHYTQKFKDKATLTVDKSSSTAYMQLSSLTSEDSAVYYCARGDLGRFDYWGQGTTLTVSS VL: DIVLTQSPASLAVSLGQRATISCRASESVSIHGTHLMHWYQQKSGQPPKLLIYAASNLESGVPARFSGSGSETDFTFNIHPVEEEDAATYFCQQSFEDPWTFGGGTKLEIKR | 51300 MFI |  | 14300 MFI | 
CHI-CDH6-7 (antibody, human IgG1, kappa, V domains shown, also called CH1-CDH6-7; chimeric antibody of murine CDH6-7) VH: EVKLVESGGGLVKPGGSLKVSCAASGFTFSDHGMAWVRQAPGKGPEWVAFISNLAYSIYYADTVTGRFTISRENAKNTLYLEMSSLRSEDTAMYYCARVYVKWYFDVWGAGTTVTVSS VL: DIQMTQSPASLSASVGETVTITCRASENIDSYLAWYQQKQGKSPQLLVFAATLLADGVPSRFSGSGSGTQYSLKINSLQSEDVARYYCQHYYSTPLTFGAGTKLELKR | 13000 MFI | 1.78 OD450 | 1020 MFI | 
